Test results published in patent US7928289B2, “Method for production of transgenic plants with increased pathogenic resistance by altering the content and/or activity of actin-depolymerising factors” (BASF Plant Science GmbH, priority 2004, dated 2011).

Tests used:
peroxisomes = assay: Movement of GFP-labeled peroxisomes in transfected epidermal leaf cells; format: cell-based, Hordeum vulgare; details: epidermal leaf cells from barley; co-expression with GFP having peroxisomal targeting sequence
Text: In order to further examine the HvADF3 function in barley, the effect of the overexpression or the silencing of HvADF3 on the mobility of peroxisomes was examined. Peroxisomes are known to be moved along actin filaments (Mathur (2002) Plant Physiology, Vol. 128, 1031-1045). Herein, barley peroxisomes were visualized by co-transformation of a plasmid expressing a variant of the Green Fluorescent Protein (GFP) with a peroxisomal targeting sequence (Mathur et al., vide supra). Herein, epidermal leaf cells from barley were transfected either only with the GFP construct or together with the already mentioned mutant of HvADF3 (S^6A). The expression of said mutant corresponds to an increase of the content and the activity of ADF3.
With the aid of the PCR method, a so-called peroxisome target sequence (PTS) was fused C-terminally to the green fluorescent protein. Said sequence consists of the three amino acids serine (S), […], and leucine (L) (Jedd, G. et al. (2002) Plant Cell Physiol 43, 384-392).
The GFP peroxisome target sequence vector (pGFPTS, FIG. 6) has a maize polyubiquitin promoter (pUbi), the coding gene for the green fluorescent protein including the peroxisome target sequence (GFPTS), and a nopaline synthase transcription terminator sequence (NOS).
The overexpression of HvADF3 was performed as described in the above. […]

actin cytoskeleton = assay: Phalloidine staining of the actin cytoskeleton in transfected epidermal leaf cells; format: cell-based, Hordeum vulgare; details: BCIngridmlo5; cells labeled with dsRED
Text: For this experiment, epidermal leaf cells from barley were transfected with a plasmid expressing dsRED (RFP) in order to label the transfected cells. In addition in some experiments, a constitutively active variant of HvADF3 bearing an S^6A amino acid substitution rendering the protein inaccessible for N-terminal phosphorylation was expressed. A corresponding mutant was described for ADF3 from maize (Smertenko et al., Plant J 14, 187-193).
As described in the above, said vectors were then used for transfecting the plants.
The dsRED vector (pUbi-RFP-Nos, FIG. 4) has a maize polyubiquitin promoter (pUbi), the coding gene for the red fluorescent protein (Discosoma sp. fluorescent protein FP583; RFP), and a nopaline synthase transcription termination sequence (NOS). The GenBank accession number for RFP is AF168419.
The experiments were conducted in BCIngridmlo5.

[1] = test system: Blumeria graminis f. sp. hordei (Bgh); assay: Fungal development on epidermal leaf cells co-transfected with GUS reporter and HvADF3(S^6A); format: cell-based, Hordeum vulgare; details: BCIngridmlo5; Bgh conidia four hours after bombardment
Procedure: Therefore, those cells were examined, which had been transfected with HvADF3 overexpression constructs.
For said experiments, epidermal leaf cells from barley were co-transfected with a plasmid for the GUS reporter together with a plasmid coding for HvADF3(S^6A), as was described in the above. Four hours after bombardment, the leaves were infected with Bgh conidia, and 22 hours after inoculation the leaves were stained with respect to GUS activity and fungal structures. FIGS. 8a and b show the fungal development in a transfected epidermal leaf cell. […] The expression of HvADF3(S^6A) corresponds to an overexpression of HvADF3. The experiments were performed in BCIngridmlo5 plants.

Erysiphe cichoracearum = assay: Infection of transgenic Arabidopsis plants with Erysiphe cichoracearum; format: in vivo, Arabidopsis thaliana; details: constitutive or pathogen-inducible expression
Procedure: (§1) The transformation is conducted according to the floral dip method (modified according to Clough and Bent, 1998). After being harvested, the seeds are sterilized with chlorine gas overnight and subsequently laid out on selection plates. The addition of antibiotics is conducted in dependency on the plant resistance marker. In case of pSUN2, BASTA is added; in case of Lo123, kanamycin is added. After sterilization, the seeds are laid out on the selection plates and are stored for stratification for two days at 4° C. in a cooling chamber. Subsequently, they are further observed under short-day conditions. After about 10 days, the first selection of the plants can be performed. Non-transgenic plants will lose color during selection, while transgenic plants having the corresponding resistance gene remain green. Those plants remaining green after the first selection are selected a second time under same conditions. Those plants still maintaining their color during the second selection can then be transferred to soil. The plants are selfed and the resulting T2 seed populations are subjected to phytopathological analysis. […]
The biotrophic mildew fungus is cultivated on Arabidopsis thaliana plants. […] These symptoms are quantified and tested for significance.

Peronospora parasitica = assay: Infection of transgenic Arabidopsis plants with Peronospora parasitica; format: in vivo, Arabidopsis thaliana; details: constitutive or pathogen-inducible expression
Procedure: as §1
5 to 8-week-old plants are sprayed with a conidia spore suspension (about 10^6 spores/ml). […] These symptoms are quantified and tested for significance.

B1: HvADF3 (S^6A): Constitutively active variant of barley ADF3 (SEQ ID No. 2) with S6A substitution, overexpressed from vector pHvADF3-CA (protein)
chain: MANASAGAGIHDDCKLRFVELKSKRMHRFITYRLENQKEVIVDQTGQRDATYEDFTKTLPENDCRFAVFDFDFTTPEDVPKSRIFYIFWSPDTAKVRSKMTYASNEKFKRTLDGIQIEMQATDPSEISLDVIKERAH
modifications: Hordeum vulgare
peroxisomal movement (peroxisomes): considerably reduced
phalloidine-stainable actin fibers in bombarded cells (actin cytoskeleton): stainable actin fibers could only be detected in the neighboring cells, but not in the bombarded cells
fungal development in transfected cells [1]: the fungus can only form very short hyphae

B2: AtADF3: ADF3 from Arabidopsis thaliana (SEQ ID No. 11), expressed constitutively (pSUN2) or pathogen-inducibly (Lo123) in transgenic Arabidopsis plants (protein, listed as Arabidopsis thaliana)
chain: MANAASGMAVHDDCKLKFMELKTKRTHRFIIYKIEELQKQVIVEKIGEPGQTHEDLAASLPADECRYAIFDFDFVSSEGVPRSRIFFVAWSPDTARVRSKMIYASSKDRFKRELDGIQVELQATDPTEMDLDVFKSRAN
resistance to Erysiphe cichoracearum as compared to non-transgenic wild-type plants (Erysiphe cichoracearum): significantly increased resistance
resistance to Peronospora parasitica as compared to non-transgenic wild-type plants (Peronospora parasitica): significantly increased resistance
